B1: RecE: Escherichia coli RecE exonuclease; SEQ ID NO: 1 (protein, listed as Escherichia coli)
chain: MSTKPLFLLRKAKKSSGEPDVVLWASNDFESTCATLDYLIVKSGKKLSSYFKAVATNFPVVNDLPAEGEIDFTWSERYQLSKDSMTWELKPGAAPDNAHYQGNTNVNGEDMTEIEENMLLPISGQELPIRWLAQHGSEKPVTHVSRDGLQALHIARAEELPAVTALAVSHKTSLLDPLEIRELHKLVRDTDKVFPNPGNSNLGLITAFFEAYLNADYTDRGLLTKEWMKGNRVSHITRTASGANAGGGNLTDRGEGFVHDLTSLARDVATGVLARSMDLDIYNLHPAHAKRIEEIIAENKPPFSVFRDKFITMPGGLDYSRAIVVASVKEAPIGIEVIPAHVTEYLNKVLTETDHANPDPEIVDIACGRSSAPMPQRVTEEGKQDDEEKPQPSGTTAVEQGEAETMEPDATEHHQDTQPLDAQSQVNSVDAKYQELRAELHEARKNIPSKNPVDDDKLLAASRGEFVDGISDPNDPKWVKGIQTRDCVYQNQPETEKTSPDMNQPEPVVQQEPEIACNACGQTGGDNCPDCGAVMGDATYQETFDEESQVEAKENDPEEMEGAEHPHNENAGSDPHRDCSDETGEVADPVIVEDIEPGIYYGISNENYHAGPGISKSQLDDIADTPALYLWRKNAPVDTTKTKTLDLGTAFHCRVLEPEEFSNRFIVAPEFNRRTNAGKEEEKAFLMECASTGKTVITAEEGRKIELMYQSVMALPLGQWLVESAGHAESSIYWEDPETGILCRCRPDKIIPEFHWIMDVKTTADIQRFKTAYYDYRYHVQDAFYSDGYEAQFGVQPTFVFLVASTTIECGRYPVEIFMMGEEAKLAGQQEYHRNLRTLADCLNTDEWPAIKTLSLPRWAKEYAND
B2: EcRecE_587: Escherichia coli RecE truncated from AA587; SEQ ID NO: 2 (protein)
chain: ADPVIVEDIEPGIYYGISNENYHAGPGVSKSQLDDIADTPALYLWRKNAPVDTTKTKTLDLGTAFHCRVLEPEEFSNRFIVAPEFNRRTNSGKEEEKAFLRECASTGKTVITAEEGRKIELMYQSVMALPLGQWLVESAGHAESSIYWEDPETAILCRCRPDKIIPEFHWIMDVKTTADIQRFKTAYYDYRYHVQDAFYSDGYEAQFGVQPTFVFLVASTTIECGRYPVEIFMMGEEAKLAGQLEYHRNLRTLADCLNTDEWPAIKTLSLPRWAKEYAND
B3: Homolog_E15: RecE, Photobacterium sp. JCM 19050; SEQ ID NO: 142 (protein, listed as Photobacterium sp.)
chain: MAERVRTYQRDAVFAHELKAEFDEAVENGKTGVTLEDQARAKRMVHEATTNPASRNWFRYDGELAACERSYFWRDEEAGLVLKARPDKEIGNNLIDVKSIEVPTDVCACDLNAYINRQIEKRGYHISAAHYLSGTGKDRFFWIFINKVKGYEWVAIVEASPLHIELGTYEVLEGLRSIASSTKEADYPAPLSHPVNERGIPQPLMSNLSTYAMKRLEQFREL
B4: EcRecT: Escherichia coli RecT SSAP; SEQ ID NO: 171 (Tables 8, 9), SEQ ID NO: 9; positive control in Table 9 (protein)
chain: MTKQPPIAKADLQKTQGNRAPAAIKNNDVISFINQPSMKEQLAAALPRHMTAERMIRIATTEIRKVPALGNCDTMSFVSAIVQCSQLGLEPGSALGHAYLLPFGNKNEKSGKKNVQLIIGYRGMIDLARRSGQIASLSARVVREGDEFNFEFGLDEKLIHRPGENEDAPVTHVYAVARLKDGGTQFEVMTRKQIELVRSQSKAGNNGPWVTHWEEMAKKTAIRRLFKYLPVSIEIQRAVSMDEKEPLTIDPADSSVLTGEYSVIDNSEE
B5: Homolog_E14: RecE, Pseudobacteriovorax antillogorgiicola; SEQ ID NO: 140 (protein, listed as Pseudobacteriovorax antillogorgiicola)
chain: MSKLSNLKVSNSDVDTLSRIRMKEGVYRDLPIESYHQSPGYSKTSLCQIDKAPIYLKTKVPQKSTKSLNIGTAFHEAMEGVFKDKYVVHPDPGVNKTTKSWKDFVKRYPKHMPLKRSEYDQVLAMYDAARSYRPFQKYHLSRGFYESSFYWHDAVTNSLIKCRPDYITPDGMSVIDFKTTVDPSPKGFQYQAYKYHYYVSAALTLEGIEAVTGIRPKEYLFLAVSNSAPYLTALYRASEKEIALGDHFIRRSLLTLKTCLESGKWPGLQEEILELGLPFSGLKELREEQEVEDEFMELVG
B6: Homolog_T15: RecT, Photobacterium sp. JCM 19050; SEQ ID NO: 141 (protein, listed as Photobacterium sp.)
chain: MNTDMIAMPPSPAISMLDTSKLDVMVRAAELMSQAVVMVPDHFKGKPADCLAVVMQADQWGMNPFTVAQKTHLVSGTLGYESQLVNAVISSSKAIKGRFHYEWSDGWERLAGKVQYVKESRQRKGQQGSYQVTVAKPTWKPEDEQGLWVRCGAVLAGEKDITWGPKLYLASVLVRNSELWTTKPYQQAAYTALKDWSRLYTPAVMQGSMTGKSWSLTGRLISPR
B7: RecE_CTD: carboxy terminus domain of E. coli RecE; SEQ ID NO: 3 (protein)
chain: GISNENYHAGPGVSKSQLDDIADTPALYLWRKNAPVDTTKTKTLDLGTAFHCRVLEPEEFSNRFIVAPEFNRRTNSGKEEEKAFLRECASTGKTVITAEEGRKIELMYQSVMALPLGQWLVESAGHAESSIYWEDPETAILCRCRPDKIIPEFHWIMDVKTTADIQRFKTAYYDYRYHVQDAFYSDGYEAQFGVQPTFVFLVASTTIECGRYPVEIFMMGEEAKLAGQLEYHRNLRTLADCLNTDEWPAIKTLSLPRWAKEYAND

Experiments:
[1] = tested on: endogenous genomic loci (DYNLT1, HSP90AA1, AAVS1, ACTB) in HEK293T cells; assay: Kilobase mKate knock-in assay in HEK293T cells (flow cytometry); type: cell-based, human; conditions: for activity in no-recruitment control: PCP no-recruitment control; for HDR / knock-in efficiency enhancement: five genomic sites (EMX1, VEGFA, HSP90AA1, DYNLT1, AAVS1), wtCas9; for knock-in editing activity with dCas9, comparison of SSAPs: dCas9, MS2-MCP
Method: Transfection HEK293T cells were seeded into 96-well plates (Corning) 12-24 hours prior to transfection at a density of 30,000 cells/well, and 250 ng of total DNA was transfected per well. HeLa and HepG2 cells were seeded into 48-well plates (Corning) one day prior to transfection at a density of 50,000 and 30,000 cells/well respectively, and 400 ng of total DNA was transfected per well. Transfections were performed with Lipofectamine 3000 (Life Technologies) following the manufacturer's instructions.
(§1) Fluorescence-activated cell sorting (FACS) mKate knock-in efficiency was analyzed on a CytoFLEX flow cytometer (Beckman Coulter; Stanford Stem Cell FACS Core). 72 hours after transfection, cells were washed once with PBS and dissociated with TrypLE Express Enzyme (Thermo Fisher Scientific). Cell suspension was then transferred to a 96-well U-bottom plate (Thermo Fisher Scientific) and centrifuged at 300×G for 5 minutes. After removing the supernatant, pelleted cells were resuspended with 50 μl 4% FBS in PBS, and cells were sorted within 30 minutes of preparation.
HEK293T, Hela, HepG2 and U2OS cells were seeded into 96-well plates (Corning) 12-24 hours prior to transfection at a density of 30,000 cells/well, and 250 ng of total DNA was transfected per well. Cells were transfected with Lipofectamine 3000 (Life Technologies) following the manufacturer's instructions when the cell are ˜70% confluence. In brief, we used 250 ng total DNA, 0.4 ul Lip3000 reagent, mixed with 10 ul of Opti-MEM per well. For the 250 ng DNA, we used 160 ng of dCas9-SSAP guide RNA plasmids (for double sgRNAd design, use equal amount of the two guide RNA plasmids, e.g., 80 ng each), 60 ng of pMCP-RecT or GFP control plasmid (addgene #64539) and 30 ng of PCR template DNA (the PCR primer could be found in Table 7, the template sequence could be found in Supplementary Sequences). Three days later, the cells were analyzed using FACS.
as §1, with “mKate” for “Fluorescence-activated cell sorting (FACS) mKate”, “transfection or 96 hours after electroporation,” for “transfection,”, “twice” for “once”, “300 g” for “300×G”, “analyzed” for “sorted”, “after” for “of”

DYNLT1 locus = assay: mKate knock-in gene-editing assay, RecE/RecT homologs, DYNLT1 locus; type: cell-based, human; conditions: HEK293 cells, MCP fusion, n=3
Procedure, shortened: (§2)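 RecE/RecT homologs from 15 microbial species, codon-optimized and each fused via E-XTEN linker to MCP with NLS, tested for mKate knock-in. Cells transfected by Lipofectamine 3000 (HEK293T 250 ng DNA/well; HeLa, HepG2 400 ng); knock-in efficiency measured by flow cytometry 72 h post-transfection.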

HSP90AA1 locus = assay: mKate knock-in gene-editing assay, RecE/RecT homologs, HSP90AA1 locus; type: cell-based, human; conditions: HEK293 cells, MCP fusion, n=3
Procedure, shortened: as §2

mammalian cells = assay: Arrayed SSAP library screening, cell viability by live cell counts via flow cytometry; type: cell-based
Procedure, shortened: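 Each SSAP plasmid transfected in duplicate (~50% efficiency), with RecT SSAP as positive and Flag-HA as negative control. After three days, mKate-positive cells and viability by flow-cytometric live cell counts were quantified to gauge SSAP fitness effects.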

[2] = tested on: endogenous genome targets (ACTB, HSP90AA1); assay: Arrayed SSAP library screening, mKate knock-in assay (editing efficiency); type: cell-based; conditions: average of HSP90 and ACTB, 3 days after transfection
Procedure, shortened: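 Mammalian cells in duplicate were transfected with SSAP-encoding plasmids, with about 50% transfection efficiency. mKate knock-in positive cells and viability, by flow-cytometric live counts, were quantified three days later. RecT SSAP served as positive control and Flag-HA plasmid as negative control.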

Molecule | Mean mKate+ (%), DYNLT1 (DYNLT1 locus) [%] | Mean mKate+ (%), HSP90AA1 (HSP90AA1 locus) [%] | HDR / knock-in efficiency enhancement [1] | other results
B1 |  |  |  | activity in no-recruitment control [1]: had activities without recruitment
B2 | 5.1767 | 3.7067 | variable increases in knock-in efficiency | 
B3 | 5.0700 | 6.0500 |  | 
B4 | 9.9467 | 6.5467 | significantly enhanced HDR in all cases | Cell Viability (Average, two targets) (mammalian cells): 0.8651; activity in no-recruitment control [1]: efficiency increases in a recruitment-dependent manner; genomic knock-in efficiency of kilobase cassette, dCas9 editing ([1]; SSAP candidate screen, HSP90AA1, DYNLT1, ACTB, human cells): ≤ 6%; knock-in editing activity with dCas9, comparison of SSAPs ([1]; human cells): highest efficiency for dCas9 editing; knock-in editing activity with dCas9, comparison of SSAPs ([1]; human cells, listed as RecT): higher knock-in editing activities relative to other SSAPs; HDR efficiency for kb-scale knock-in ([1]; template bearing 600-800 bp total HA, without selection): over 10%; Editing Efficiency (Normalized, Average, two targets) ([2]; fold over negative control (Flag_HA)): 3.807; Editing Efficiency (Absolute, Average, two targets) ([2]; percent of mKate knock-in): 9.4225
B5 | 6.0167 | 5.7100 |  | 
B6 | 7.8033 | 5.2333 |  | 
B7 |  |  | variable increases in knock-in efficiency | 
